Results from patent publication US20220127355A1 (INTEGRAL MOLECULAR, published 2022).
Positions count from the first letter of the chain named.

B1: IM171 (antibody, V domains shown)
VH: AVTLDESGGGLQTPGGALSLVCKASGFDFSSYAMNWVRQAPGKGLEWVAGIGSTGSSTGYGPAVKGRATISRDNGQSTLRLQLNNLRAEDTAIYYCAKSVGNGNSWSGYIATSIDAWGHGTEVIVSS
VL: ALTQPSSVSANLGGTVKLTCSGGSSGYGWYQQKSPGSAPVTVIYSNDKRPSDIPSRFSGSLSGSTGTLTITGVQADDEAVYFCGSTDNSYVGIFGAGTTLTVL
notes: Detected with anti-human IgG Fc secondary; also called LM171
B2: IM173 (antibody, V domains shown)
VH: AVTLDESGGGLQTPGGALSLVCKASGFTFSSYSMFWVRRAPGKGLEWVAGIDSGSTTFYGSAVKGRATISRDNGQSTVRLQLNNLRAEDTATYYCAKDAYGYCGWSGCSADSIDAWGHGTEVIVSS
VL: ALTQPSSVSANPGGTVEITCSGGNNYYGWYQQKSPGSAPVTVIYYNDKRPSDIPSRFSGSKSGSTGTLTITGVQADDEAVYFCGGWDSSGGIFGAGTTLTVL
notes: Detected with anti-human IgG Fc secondary

How the values were obtained:
R158A = target: T1, R158A; experiment: Shotgun Mutagenesis epitope mapping; mean (range), % of wild-type Claudin 6
T1 construct: Shotgun Mutagenesis mutant; also called Claudin 6 R158A
T1 chain: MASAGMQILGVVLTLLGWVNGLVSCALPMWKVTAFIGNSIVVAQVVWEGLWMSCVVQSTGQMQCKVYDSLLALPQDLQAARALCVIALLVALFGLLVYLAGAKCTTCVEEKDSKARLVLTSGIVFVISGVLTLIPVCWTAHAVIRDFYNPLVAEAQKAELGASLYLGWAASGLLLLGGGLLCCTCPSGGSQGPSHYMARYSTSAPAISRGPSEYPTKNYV

Claudin 6 (human) = target: T2, Claudin 6 (human) (human, UniProt P56747 1-220); experiment: flow cytometry, PA-1 cells naturally expressing Claudin-6
T2 construct: Expressed on transfected HEK-293T cells or naturally on PA-1 cells for flow cytometry; For the Octet KD values it was the intact protein embedded in virus-like particles (lipoparticles); also called hsCLDN6; CLDN6
T2 chain: T1 chain with A158R

Claudin 9 [1] = target: T3, Claudin 9 (UniProt O95484 1-217); experiment: biosensor (Forte Octet), intact claudin in virus-like particles (lipoparticles)
T3 construct: Octet KD values: intact claudin protein embedded in virus-like particles (lipoparticles); also called CLDN9
T3 sequence (looked up): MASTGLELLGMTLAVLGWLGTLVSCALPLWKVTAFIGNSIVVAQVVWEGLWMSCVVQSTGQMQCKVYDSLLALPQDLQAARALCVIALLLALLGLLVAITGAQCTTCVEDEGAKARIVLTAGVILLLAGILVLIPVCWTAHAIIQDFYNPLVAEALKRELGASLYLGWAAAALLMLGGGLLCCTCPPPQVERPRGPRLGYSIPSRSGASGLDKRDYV
Experimental: Affinity of various antibodies against CLDN6 as compared to CLDN9, CLDN3, and CLDN4 was measured using a biosensor. Biosensor affinity measurement of the various antibodies against the proteins was determined using a Forte Octet, which was used for biosensor measurements, using intact claudin proteins embedded in virus-like particles (lipoparticles). The KD for different antibodies is shown below.

Claudin 4 = target: T4, Claudin 4 (UniProt O14493 1-209); experiment: flow cytometry, HEK-293T cells transiently transfected with the indicated claudin; pUC19 = empty vector control
T4 construct: also called CLDN4
T4 sequence (looked up): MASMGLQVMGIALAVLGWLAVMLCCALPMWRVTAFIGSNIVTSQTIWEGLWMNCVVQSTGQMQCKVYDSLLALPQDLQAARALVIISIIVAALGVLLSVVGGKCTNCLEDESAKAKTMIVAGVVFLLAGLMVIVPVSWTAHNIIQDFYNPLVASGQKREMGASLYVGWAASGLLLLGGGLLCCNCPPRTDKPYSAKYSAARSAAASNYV
Experimental: (§1) FIG. 2 illustrates the results of a binding assay showing that Claudin 6 MAbs bind to human Claudin 6 preferentially over other Claudin proteins. Human embryonic kidney 293T (HEK-293T) cells were transiently transfected with DNA for the indicated Claudin protein or empty vector along with GFP (pUC) for 22 hours.

Claudin 9 [2] = target: T3, Claudin 9; experiment: as above
Experimental: as §1

Binder | Binding Reactivity (% WT) (R158A) | EC50 (read off the curve) (Claudin 6 (human)) [µg/mL] | Kd (Claudin 9 [1]) [nM] | binding result (Claudin 4) | binding result (Claudin 9 [2])
B1 | 1.3 | ~2 | 902 | no binding (tested: log [mAb] about -7.2 M) | –
B2 | 3.6 | – | – | – | no binding (tested: log [mAb] about -7.2 M)
